Where “and” joins values, the source holds several entries; their conditions need not be identical. Equal entries are not always repeated.
Key:
[1] = target: T1, p50/RelA-FL: p50 subunit (39-350);RelA-RHD (no TAD) (murine;murine, UniProt P25799;Q04207 39-350;19-321, |); test: fluorescence anisotropy; SEC buffer 25 mM Tris pH 7.5, 150 mM NaCl, 0.5 mM EDTA, 1 mM DTT (FA buffer not stated explicitly; 5 nM DNA, RT incubation, read at 25 C); EMSA: SEC buffer 1:1; settings: protein: recombinant;recombinant, tags: N-terminal His6;none, copies: 1;1
[2] = target: T2, p50/RelA-FL: p50 subunit (39-350);RelA-FL (RHD + TAD) (murine;murine, UniProt P25799;Q04207 39-350;19-549, |); test: as above; settings: protein: recombinant;recombinant, tags: N-terminal His6;none, copies: 1;1
[3] = target: T1, p50/RelA-FL: p50 subunit …; test: EMSA; SEC buffer 25 mM Tris pH 7.5, 150 mM NaCl, 0.5 mM EDTA, 1 mM DTT (FA buffer not stated explicitly; 5 nM DNA, RT incubation, read at 25 C); EMSA: SEC buffer 1:1; settings: protein: recombinant;recombinant; tags: N-terminal His6;none; copies: 1;1
[4] = target: T2, p50/RelA-FL: p50 subunit …; test: as above; settings: protein: recombinant;recombinant; tags: N-terminal His6;none; copies: 1;1
[5] = label: 5' fluorescein (FITC), hairpin
[6] = label: 5' fluorescein on forward or reverse strand

T1 sequence (P25799 39-350, chain 1 of 2): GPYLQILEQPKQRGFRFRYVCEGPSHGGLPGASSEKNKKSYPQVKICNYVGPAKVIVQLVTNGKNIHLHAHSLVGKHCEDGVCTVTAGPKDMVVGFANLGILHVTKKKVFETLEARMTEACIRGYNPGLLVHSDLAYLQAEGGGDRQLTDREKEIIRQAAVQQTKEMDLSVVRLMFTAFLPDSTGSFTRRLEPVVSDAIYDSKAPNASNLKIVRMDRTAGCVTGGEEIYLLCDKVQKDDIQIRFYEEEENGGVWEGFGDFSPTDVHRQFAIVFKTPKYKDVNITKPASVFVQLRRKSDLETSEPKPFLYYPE
T1 sequence (Q04207 19-321, chain 2 of 2): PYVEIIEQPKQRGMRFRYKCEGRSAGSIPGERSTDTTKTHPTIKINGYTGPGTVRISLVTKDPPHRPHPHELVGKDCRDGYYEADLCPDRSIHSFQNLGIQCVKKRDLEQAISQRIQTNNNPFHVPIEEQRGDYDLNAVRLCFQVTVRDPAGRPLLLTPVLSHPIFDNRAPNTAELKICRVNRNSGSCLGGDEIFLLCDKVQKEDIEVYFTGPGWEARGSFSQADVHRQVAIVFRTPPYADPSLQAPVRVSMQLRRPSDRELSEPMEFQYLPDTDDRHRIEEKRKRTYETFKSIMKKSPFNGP
T2 sequence (P25799 39-350, chain 1 of 2): as the sequence (P25799 39-350, chain 1 of 2) above
T2 sequence (Q04207 19-549, chain 2 of 2): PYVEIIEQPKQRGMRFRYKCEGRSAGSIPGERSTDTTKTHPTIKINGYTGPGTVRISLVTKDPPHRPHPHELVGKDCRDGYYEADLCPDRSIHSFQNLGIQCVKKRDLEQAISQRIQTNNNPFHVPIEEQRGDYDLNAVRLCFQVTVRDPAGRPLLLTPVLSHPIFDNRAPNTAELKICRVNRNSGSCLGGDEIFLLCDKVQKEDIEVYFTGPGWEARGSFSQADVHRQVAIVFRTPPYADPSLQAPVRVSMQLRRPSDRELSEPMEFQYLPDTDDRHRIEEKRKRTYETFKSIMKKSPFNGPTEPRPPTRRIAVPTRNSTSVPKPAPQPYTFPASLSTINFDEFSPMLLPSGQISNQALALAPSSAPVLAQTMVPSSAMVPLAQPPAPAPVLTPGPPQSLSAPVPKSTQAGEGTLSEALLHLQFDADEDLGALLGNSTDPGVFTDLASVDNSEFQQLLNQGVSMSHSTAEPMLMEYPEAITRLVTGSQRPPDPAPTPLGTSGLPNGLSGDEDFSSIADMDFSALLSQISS

| Binder | Kd [1, 5] | Kd [2, 5] | Kd [1, 6] | Kd [2, 6] | binding result [3] | binding result [4] |
| --- | --- | --- | --- | --- | --- | --- |
| GGGAAAGTACTCCCCCAGTACTTTCCC (structured_DNA, 5' 5AmMC6 amino linker) [Urokinase (UK) hairpin] | 6.3 ± 1.5 nM | 2.2 ± 0.6 nM |  |  |  |  |
| HIV LTR tandem dsDNA (FA) (dsDNA) DNA 1: CAAGGGACTTTCCGCTGGGGACTTTCCAGG DNA 2: CCTGGAAAGTCCCCAGCGGAAAGTCCCTTG |  |  | 1.7 ± 0.4 nM | 1.3 ± 0.4 nM |  |  |
| NFKBIA tandem dsDNA (FA) (dsDNA) DNA 1: CTTGGAAATTCCCCGAGCCTGACCCCGCCCCAGAGAAATCCCCAG DNA 2: CTGGGGATTTCTCTGGGGCGGGGTCAGGCTCGGGGAATTTCCAAG |  |  | 1.7 nM and 10 nM | 1.5 nM and 5.1 nM |  |  |
| GTAGACGTGCTCCCCCAGCACGTCTAC (structured_DNA, 5' 5AmMC6 amino linker) [Random hairpin] | 1500 ± 100 nM | 130 ± 40 nM |  |  |  |  |
| HIV LTR tandem 33 bp (dsDNA) DNA 1: AAGGGACTTTCCGCTGGGGACTTTCCAGGGAGG DNA 2: CCTCCCTGGAAAGTCCCCAGCGGAAAGTCCCTT |  |  |  |  | binds | binds |
| NFKBIA tandem 59 bp (dsDNA) DNA 1: CTGACTGGCTTGGAAATTCCCCGAGCCTGACCCCGCCCCAGAGAAATCCCCAGCCAGCG DNA 2: CGCTGGCTGGGGATTTCTCTGGGGCGGGGTCAGGCTCGGGGAATTTCCAAGCCAGTCAG |  |  |  |  | binds | binds |

— PMC9440430, “An intrinsically disordered transcription activation domain increases the DNA binding affinity and reduces the specificity of NFκB p50/RelA”
